This is an account of results in paper PMC5832925, “Hypoxia-inducible lipid droplet-associated protein inhibits adipose triglyceride lipase” (Journal of Lipid Research, 2018).

In assay [1] the target is T1, sf-GFP-mATGL288 (mouse ATGL residues 1-288 fused to superfolder GFP) (mouse, UniProt Q8BJ56 1-288).
T1 construct: mouse adipose triglyceride lipase (ATGL), residues 1-288, patatin domain-containing region, in pST50; The functional (TGH) rows used mATGL288 without sf-GFP in an E. coli lysate; the same ATGL stretch, so they are written on this molecule; also called mATGL_1-288; source: E. coli ArcticExpress (DE3), purified (Strep Trap HP, ResourceQ, Superdex 200 Increase); not shown: superfolder GFP, …
T1 sequence (looked up): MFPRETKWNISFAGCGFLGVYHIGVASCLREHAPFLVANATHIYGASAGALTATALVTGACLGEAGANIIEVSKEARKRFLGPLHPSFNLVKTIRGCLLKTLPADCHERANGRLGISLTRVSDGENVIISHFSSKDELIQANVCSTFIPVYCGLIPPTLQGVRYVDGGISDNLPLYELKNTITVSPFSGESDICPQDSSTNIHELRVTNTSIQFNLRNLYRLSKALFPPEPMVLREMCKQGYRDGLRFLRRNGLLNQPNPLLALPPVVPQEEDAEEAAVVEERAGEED
The experiment in a line: MST; Monolith NT.115; smt3-tagged hHILPDA 1.1 μM to 487 μM titrated against 0.01 μM sf-GFP-mATGL_288; 20 mM phosphate, 300 mM NaCl, 1 mM EDTA, 1 mM DTT pH 7.0, 1% BSA; room temperature; triplicate. The settings on record: both partners purified.

Assay [2] addresses T1, sf-GFP-mATGL288 (mouse ATGL residues …). The experiment in a line: cell-based or functional assay.
Assay [3] has as its target T2, sf-GFP-mATGL288 (mouse ATGL residues 1-288 fused to superfolder GFP) (mouse) (UniProt Q8BJ56).
T2 sequence: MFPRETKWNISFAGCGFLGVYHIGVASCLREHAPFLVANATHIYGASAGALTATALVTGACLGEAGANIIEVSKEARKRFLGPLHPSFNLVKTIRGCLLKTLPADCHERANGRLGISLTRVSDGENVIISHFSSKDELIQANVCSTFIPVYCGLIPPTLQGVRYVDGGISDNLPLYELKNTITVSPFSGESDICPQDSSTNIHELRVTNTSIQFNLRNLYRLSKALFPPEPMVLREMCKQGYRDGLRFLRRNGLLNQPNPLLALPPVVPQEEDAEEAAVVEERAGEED

B1: 6XHis-smt3-TEV-hHILPDA (human hypoxia-inducible lipid droplet-associated protein, full length) (natural protein, UniProt Q9Y5L2 1-63, looked up)
chain: MKHVLNLYLLGVVLTLLSIFVRVMESLEGLLESPSPGTSWTTRSQLANTEPTKGLPDHPSRSM
notes: human HILPDA (Hig-2), 63 amino acids, construct hHILPDA_1-63 in a modified pSUMO vector with 6XHis tag and TEV site; The fusion protein (22 kDa) was used without removal of smt3; a TEV site lies between smt3 and HILPDA; also called smt3-HILPDA fusion protein; source: E. coli BL21-CodonPlus (DE3)-RIL, purified (HisTrap FF, Superdex 200); not shown: smt3, N-terminal, kept
As to B1, binding in assay [1] was characterised by a dissociation constant (Kd) of 247 µM. The “IC50 of inhibition of TGH activity of mATGL288 lysate (without sf-GFP) with CGI-58; HILPDA 44 nM to 44 μM” value in assay [2] worked out at 1.9 µM. MKHVLNLYLLGVVLTLLSIFVRVMESLE (domain or fragment) [hHILPDA_1-28 (6XHis-smt3-TEV fusion)] had an IC50 of inhibition of TGH activity of mATGL288 lysate (without sf-GFP) with CGI-58; HILPDA 1-28 44 nM to 44 μM in assay [3] of 5 µM.

Molecule MKHVLNLYLLGVVLTLLSIFVRVM (domain or fragment) [hHILPDA_1-24 (6XHis-smt3-TEV fusion)] yielded an IC50 of inhibition of TGH activity of mATGL288 lysate (without sf-GFP) with CGI-58; HILPDA 1-24 44 nM to 44 μM in assay [3] of 5.4 µM.

As usually defined, the Kd is the free concentration of one partner at which half of the binding sites on the other are occupied at equilibrium, for simple one-to-one binding. Low values mean a tighter complex, high ones a looser complex.
